Data reported in patent publication US20170349646A1.

Molecular target: recombinant nucleoprotein derived from influenza virus subtype A H1N1 (Sino Biological, 40205-[change]) (influenza virus subtype A H1N1)

B1: VHH antibody consisting of the amino acid sequence represented by SEQ ID NO: 08 (VHH)
VHH: EVQLVESGGGLVQAGDSLRLSCAASGRTFINLDMGWFRQPPGKEREYVAAITRNGAITSYADSAKGRFTISRDNAKNTVSLEMNSLKPEDTGVYYCAAYSISNYGSGWYKPDYWGQGAQVTVSS
Q: Which EC50 (read off the curve) does the source give for B1 here?
A: 0.2 µg/mL
